The nature of the data set: protein stability index of a GFP-peptide fusion (GPS, HEK-293T) (PSI 1-6); higher = more stable. Particulars: c terminus: native.

Here are results for 9 proteins from the supplement of paper PMC10567573.
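Note: lentivirally expressed fusion library, cells FACS-sorted into six equal-sized GFP/DsRed ratio bins, PSI computed from sequencing read fractions per bin weighted by bin number.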

B1: SNF8 addH (peptide)
chain: LPALFTDLYSQEITAEEAREALPH
Regarding B1, the protein stability index (parent: NP_009172.2) came to 4.88.

B2: PSMB5 addS (peptide)
chain: DGWIRVSSDNVADLHEKYSGSTPS
Take B2: the protein stability index (parent: NP_002788.1) came to 3.98.

B3: SNF8 addS (peptide)
chain: LPALFTDLYSQEITAEEAREALPS
B3: the protein stability index (parent: NP_009172.2) was 4.4.

B4: TRPA1 addS (peptide)
chain: EQRNSRWNTVLRAVKAKTHHLEPS
On to B4, for which the protein stability index (parent: NP_015628.1) was 4.6.

B5: BEX2 addS (peptide)
chain: HSLRAVSTDPPHHDHHDEFCLMPS
B5: the protein stability index (parent: NP_116010.1) was found to be 3.84.

B6: TRPA1 addH (peptide)
chain: EQRNSRWNTVLRAVKAKTHHLEPH
As for B6, the protein stability index (parent: NP_015628.1) stood at 5.05.

B7: POLD2 addS (peptide)
chain: CQPISFSGFGAEDDDLGGLGLGPS
For the protein B7, the protein stability index (parent: NP_006221.1) was determined as 2.6.

B8: POLD2 addH (peptide)
chain: CQPISFSGFGAEDDDLGGLGLGPH
On to B8, for which the protein stability index (parent: NP_006221.1) worked out at 2.24.

B9: PSMB5 addH (peptide)
chain: DGWIRVSSDNVADLHEKYSGSTPH
As to B9, the protein stability index (parent: NP_002788.1) is 3.83.
